Assay results published in patent publication US8026342B2, “Compositions and methods for binding sphingosine-1-phosphate” (Lpath, Inc., priority 2006, dated 2011).

B1: LT1002: murine anti-S1P monoclonal antibody, IgG1 kappa, from hybridoma clone 306D326.26 (antibody, listed as Mus sp., V domains shown)
VH: QAHLQQSDAELVKPGASVKISCKVSGFIFIDHTIHWMKQRPEQGLEWIGCISPRHDITKYNEMFRGKATLTADKSSTTAYIQVNSLTFEDSAVYFCARGGFYGSTIWFDFWGQGTTLTVS
VL: ETTVTQSPASLSMAIGEKVTIRCITTTDIDDDMNWFQQKPGEPPNLLISEGNILRPGVPSRFSSSGYGTDFLFTIENMLSEDVADYYCLQSDNLPFTFGSGTKLEIK

What was measured:
[1] = tested on: retinal neovascularization; experiment: Murine model of retinopathy of prematurity: retinal neovascularization; format: in vivo, C57BL/6 mice; conditions: 5.0 μg/eye intravitreal
Experimental: C57BL/6 mice (n=7) were placed in 75% oxygen at day 7 of life and at day 12 of life were returned to room air and given an intraocular injection of 5 μg of sonepcizumab in one eye and vehicle in the contralateral eye. At day 17, the mice received an intraocular injection of anti-PECAM antibody labeled with FITC and after 8 hours, mice were euthanized and eyes were removed and fixed in PBS-buffered formalin at room temperature for 5 hours. Retinas were dissected and washed with phosphate-buffered saline containing 0.25% Triton X-100 and whole mounted. Slides were viewed with a Nikon Fluorescence Microscope and the area of retinal NV per retina was measured by image analysis.

[2] = tested on: experimental autoimmune encephalomyelitis; experiment: MOG35-55 induced EAE model of multiple sclerosis; format: in vivo, C57BL/6J mice
Experimental: Experimental protocol—the following experiments were conducted in the laboratory of Dr. Howard Weiner in collaboration with Lpath, Inc. A peptide fragment of myelin oligodendrocyte glycoprotein (MOG35-55; […] (SEQ ID NO: 52)) is used to cause experimental EAE in mice. Mendel, I. et al., A myelin oligodendrocyte glycoprotein peptide induces typical chronic experimental autoimmune encephalomyelitis in H-2b mice: fine specificity and T cell receptor V beta expression of encephalitogenic T cells, Eur J Immunol. 1995 July; 25(7):1951-9. EAE was induced in mice by immunization with a peptide corresponding to amino acids 35-55 of myelin oligodendrocyte glycoprotein (MOG) peptide (MOG35-55) to induce chronic experimental autoimmune encephalomyelitis (EAE). Following immunization with MOG35-55, mice develop an acute episode of EAE that is followed by a gradually developing progressive disease thought to model several features of progressive multiple sclerosis. Mice were treated with antibody to S1P and treated mice were followed to study the effects of S1P-specific antibody on the clinical manifestations of this acute model of EAE. At the end of the experiment, treated mice were also used to analyze the effect of anti-S1P administration on the immune response.
In a first set of experiments, using 10 mice per group with an average weight of 20 gr, EAE was induced in C57BL/6J mice with 150 ug/mouse MOG35-55 in CFA along with […] pertussis toxin on days 0 and 2. Anti-S1P antibody LT1002 (Sphingomab™) was administered i.v. at a dosage of 75 mg/Kg on day-1, followed by i.p. dosing at 25 mg/Kg every 2 days. Treated mice were followed for 25 days to study the effects of S1P-specific antibodies on the clinical manifestations of this acute model of EAE. Clinical manifestations of the disease include flaccid tail, and limb paralysis which may be scored to give an objective evaluation of clinical symptoms. The standard evaluation of disease severity in the EAE model measures clinical behavior on a 0-6 scale: 0) normal; 1) flaccid tail; 2) abnormal gait, hind leg weakness; 3) partial paralysis, severe ataxia; 4) minimal hind leg movement after painful stimulus; 5) no hind leg movement; 6) moribund state with little or no movement. Means were compared between groups to determine the effect of treatment on clinical scores and body weight gain. Statistical significance of clinical scores and weight were resolved using biostatistical analysis.
At day 17, two representative mice were sacrificed to study the cellular immune response (proliferation and cytokines) and to analyze CNS pathology. Spinal cords were dissected and sectioned. Sections were stained with hematoxylin and eosin (H&E) to reveal inflammatory cells, with Luxol to visualize myelin, or with silver stain to visualize axons. Total levels of CD4+FoxP3+Treg cells were evaluated by FACS analysis of blood samples taken from the tail on day 17. At day 25, treated mice were analyzed to see the effect of anti-S1P administration on the immune response.
Injection of synthetic MOG peptide (amino acids 35-55 of myelin oligodendrocyte glycoprotein, referred to as MOG35-55) causes mice to develop significant specific T cell responses in addition to neurological symptoms. Spahn et al., (1999) Eur. J. Immunol 29:4060-4071. Anti-S1P administration was associated with a significant decrease in this proliferative recall response to MOG35-55. Mice were primed by injections of MOG peptide. The spleens were removed and homogenized, and splenocytes were pulsed with different amounts of MOG peptide. Subsequently, cells were pulsed with radiolabel and incubated before cells were harvested and label incorporation was assessed by scintillation counting. […] As measured in cpm, the recall proliferative response was decreased by approximately 36%, 38% and 22% after anti-S1P antibody treatment (at 4 ug/ml, 20 ug/ml and 100 ug/ml of MOG35-55, respectively).

[3] = 75 mg/Kg i.v. day -1, then 25 mg/Kg i.p. every 2 days

Molecule | reduction in retinal neovascularization compared to saline control [1] | decrease in recall proliferative response to MOG35-55 (cpm) ([2]; 4 ug/ml MOG35-55) | decrease in recall proliferative response to MOG35-55 (cpm) ([2]; 20 ug/ml MOG35-55) | decrease in recall proliferative response to MOG35-55 (cpm) ([2]; 100 ug/ml MOG35-55) | EAE development [2, 3] | EAE severity score (0-6 scale) at plateau [2, 3] | circulating lymphocytes ([2]; antibody-treated animals) | demyelination in spinal cord ([2]; antibody-treated animals) | spleen CD4+ T cells, of lymphocytes in spleen ([2]; antibody-treated animals) | axonal loss ([2]; antibody-treated mice) | CD4+CD25+Foxp3+ Treg in spleen ([2]; mouse, in vivo) | IFNγ secretion by splenocytes upon MOG35-55 stimulation ([2]; mouse, in vivo) | IL-10 secretion by splenocytes upon MOG35-55 stimulation ([2]; mouse, in vivo) | IL-17 secretion by splenocytes upon MOG35-55 stimulation ([2]; mouse, in vivo) | circulating CD4+CD25+Foxp3+ Treg cells ([2]; mouse, in vivo) | decrease in spleen CD4+ T cells after antibody treatment ([2]; vs control animals) | decrease in circulating lymphocytes after antibody treatment ([2]; vs control animals with EAE) | decrease in axonal loss after treatment ([2]; vs untreated controls with EAE) | decrease in demyelination after treatment ([2]; vs untreated controls with EAE) | decrease in number of inflammatory cells/mm^2 in spinal cords ([2]; vs untreated controls with EAE)
LT1009: humanized anti-S1P IgG1/kappa mAb with Cys to Ala in HCDR2, light chain with 5 backmutations; SEQ ID NO: 31/32 | ~4 fold |  |  |  |  |  |  |  |  |  |  |  |  |  |  |  |  |  |  | 
B1 |  | approximately 36% | ~38% | ~22% | significant inhibition | approximately 2 | approximately 10% | less than 1% | approximately 7.6% | less than 2% | significant increase | lower levels | higher levels | lower levels | statistically nonsignificant increase | ~35% | ~26% | ~91% | ~92% | about 85%
